The values below come from patent US20160102129A1 (Novo Nordisk, published 2016).

For experiment [1], the target named is T1, human GLP-1 receptor (human, UniProt P43220 24-463). The experiment is described as follows: cell-based or functional assay.
The target in experiment [2] is T2, human glucagon receptor (human, UniProt P47871 26-477). Put plainly: cell-based or functional assay.
For experiment [3], the target named is T1, human GLP-1 receptor. Put plainly: SPA displacement of [125I]GLP-1(7-36)NH2 from hGLP-1R BHK membranes. The protocol: The GLP-1 receptor binding of each derivatives were determined with competitive binding, displacing [¹²⁵I]GLP-1 bound to GLP-1 receptors expressed in cell membranes associated with wheat germ agglutinin (WGA) scintillation proximity assay (SPA) beads. Each derivative was added in a series of concentrations to isolated membranes comprising the human GLP-1 receptor and displacement of the labelled radioligand was monitored. The receptor binding was reported as the concentration at which half of the labelled ligand is displaced from the receptor, the IC⁵⁰ value.
1. For the receptor binding assay 50 μl of the assay buffer was added to each well of an assay plate. [0588] 2. Test compounds were serially diluted to give the following concentrations: 8×10EE-7 M, 8×10EE-8 M, 8×10EE-9 M, 8×10EE-10 M, 8×10EE-11 M, 8×10EE-12 M and 8×10EE-13 M. Twenty-five μl were added to appropriate wells in the assay plate. [0589] 3. Cell membrane aliquots were thawed and diluted to their working concentration. Fifty μl were added to each well in the assay plate. [0590] 4. WGA SPA beads were suspended in assay buffer at 20 mg/ml. The suspension was diluted to 10 mg/ml in assay buffer just prior to addition to the assay plate. Fifty μl were added to each well in the assay plate. [0591] 5. […] A 25 μl aliquot was reserved for measuring total counts/well. [0592] 6. The assay plate was incubated for 2 h at 30° C. [0593] 7. The assay plate was centrifuged for 10 min. [0594] 8. The assay plate was read in a Perkin Elmer TopCount NXT instrument.

Experiment [4] deals with T2, human glucagon receptor. Put plainly: SPA displacement of [125I]-glucagon from human glucagon receptor BHK membranes. The protocol:
1. For the receptor binding assay 50 μl of the assay buffer was added to each well of an assay plate. [0603] 2. Test compounds were serially diluted to give the following concentrations: 8×10EE-7 M, 8×10EE-8 M, 8×10EE-9 M, 8×10EE-10 M, 8×10EE-11 M, 8×10EE-12 M and 8×10EE-13 M. Twenty-five μl were added to appropriate wells in the assay plate. [0604] 3. Cell membrane aliquots were thawed and diluted to their working concentration. Fifty μl were added to each well in the assay plate. [0605] 4. WGA SPA beads were suspended in assay buffer at 20 mg/ml. The suspension was diluted to 10 mg/ml in assay buffer just prior to addition to the assay plate. Fifty μl were added to each well in the assay plate. [0606] 5. […] A 25 μl aliquot was reserved for measuring total counts/well. […] 6. The assay plate was incubated for 2 h at 25° C. [0608] 7. The assay plate was centrifuged for 10 min at 1500 rpm. [0609] 8. The assay plate was read in a Perkin Elmer TopCount NXT instrument.

*1 amine or outer side, *2 acyl side, *3 side chain or, on linkers, in order; H or OH if unused. Side-chain parts run from the residue outwards. [ ]: non-standard residue; d: D form. The star is where a group is joined. C18 diacid = O=C(O)CCCCCCCCCCCCCCCCC(=O)*; γGlu = O=C(O)[C@H](CCC(=O)[*:2])N[*:1]; Desaminohistidyl = O=C(CCc1c[nH]cn1)*; Ac4c = NC1(C(=O)O)CCC1; Aib = CC(C)(N)C(=O)O

T2 sequence (P47871 26-477): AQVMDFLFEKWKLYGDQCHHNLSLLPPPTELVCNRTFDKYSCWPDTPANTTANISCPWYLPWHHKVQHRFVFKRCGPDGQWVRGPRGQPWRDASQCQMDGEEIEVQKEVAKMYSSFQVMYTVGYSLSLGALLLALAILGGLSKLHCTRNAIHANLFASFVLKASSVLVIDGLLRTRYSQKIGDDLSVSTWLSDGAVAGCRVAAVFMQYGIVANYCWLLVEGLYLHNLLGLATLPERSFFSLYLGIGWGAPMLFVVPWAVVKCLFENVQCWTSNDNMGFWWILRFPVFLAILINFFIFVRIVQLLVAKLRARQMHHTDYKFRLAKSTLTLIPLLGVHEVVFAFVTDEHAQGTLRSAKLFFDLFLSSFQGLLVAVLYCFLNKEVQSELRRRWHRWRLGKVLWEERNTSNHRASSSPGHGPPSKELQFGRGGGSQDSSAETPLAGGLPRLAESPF

With [Desaminohistidyl][Ac4c]HGTFTSDYSKYLEEQAAREFIAWLLKK([Gly-Ser-Glu-Gly-Ser-γGlu-γGlu-C18 diacid])-NH2, the “EC50 GLP-1R [pM], CRE luciferase reporter gene assay” value (from here on “EC50 GLP-1R [pM]”) in the experiment with human GLP-1 receptor [1] was 5.7 pM. In addition, in the experiment with human glucagon receptor [2], the “EC50 GlucagonR [pM], CRE luciferase reporter gene assay” value (“EC50 GlucagonR [pM]” below) is 117 pM. In addition, the 50% inhibitory concentration (IC50) came out at 0.7 nM with human GLP-1 receptor [3] and 16 nM with human glucagon receptor [4].

B1: N^ε35-[(4S)-4-carboxy-4-[[2-[2-[2-[[(4S)-4-carboxy-4-[[2-[2-[2-[[(4S)-4-carboxy-4-[[2-[2-[2-[[(4S)-4-carboxy-4-[[(4S)-4-carboxy-4-(17-carboxyheptadecanoylamino) … (peptide)
peptide: XXHGTFTSDYSKYLEEQAAREFIAWLLKK
modifications: Imp (desamino-His) at 7; Acb at 8; Lys35 N-epsilon acylated with 17-carboxyheptadecanoyl-γGlu-γGlu-Ado-γGlu-Ado-γGlu-Ado-γGlu-; C-terminal amide (GLP-1(7-37) numbering)
B1: the “EC50 GLP-1R [pM]” value with human GLP-1 receptor [1] came out at 3 pM. Further, the “EC50 GlucagonR [pM]” value with human glucagon receptor [2] was determined as 78 pM. Moreover, the IC50 stood at 1.4 nM with human GLP-1 receptor [3] and 6.9 nM with human glucagon receptor [4].
As to [Desaminohistidyl][Ac4c]HGTFTSDVSKYLEEQAAREFIAWLLKK([Gly-Ser-Glu-Gly-Ser-γGlu-γGlu-C18 diacid])-NH2, the “EC50 GLP-1R [pM]” value with human GLP-1 receptor [1] worked out at 2 pM. Moreover, the “EC50 GlucagonR [pM]” value with human glucagon receptor [2] was 163 pM. In addition, the IC50 came to 0.1 nM with human GLP-1 receptor [3] and 43.9 nM in the experiment with human glucagon receptor [4].

B2: N^ε35-[(4S)-4-carboxy-4-[[2-[2-[2-[[(4S)-4-carboxy-4-[[2-[2-[2-[[(4S)-4-carboxy-4-[[2-[2-[2-[[(4S)-4-carboxy-4-[[(4S)-4-carboxy-4-(17-carboxyheptadecanoylamino) … (peptide)
peptide: XXHGTFTSDYSKYLERQAAREFIAWLLKK
modifications: Imp (desamino-His) at 7; Acb at 8; Lys35 N-epsilon acylated with 17-carboxyheptadecanoyl-γGlu-γGlu-Ado-γGlu-Ado-γGlu-Ado-γGlu-; C-terminal amide (GLP-1(7-37) numbering)
Regarding B2, the “EC50 GLP-1R [pM]” value with human GLP-1 receptor [1] worked out at 7 pM. The “EC50 GlucagonR [pM]” value with human glucagon receptor [2] stood at 84 pM. In addition, the IC50 in the experiment with human GLP-1 receptor [3] came out at 2.3 nM; in the experiment with human glucagon receptor [4], 11.7 nM.

B3: N^ε35-[(4S)-4-carboxy-4-[[2-[2-[2-[[(4S)-4-carboxy-4-[[2-[2-[2-[[(4S)-4-carboxy-4-[[2-[2-[2-[[(4S)-4-carboxy-4-[[(4S)-4-carboxy-4-(17-carboxyheptadecanoylamino) … (peptide)
peptide: XXHGTFTSDYSKYLEGRAAREFIAWLLKK
modifications: Imp (desamino-His) at 7; Acb at 8; Lys35 N-epsilon acylated with 17-carboxyheptadecanoyl-γGlu-γGlu-Ado-γGlu-Ado-γGlu-Ado-γGlu-; C-terminal amide (GLP-1(7-37) numbering)
Turning to B3, the “EC50 GLP-1R [pM]” value in the experiment with human GLP-1 receptor [1] amounted to 16 pM. In the experiment with human glucagon receptor [2], the “EC50 GlucagonR [pM]” value amounted to 222 pM. The IC50 with human GLP-1 receptor [3] was 7.3 nM; with human glucagon receptor [4], 22.5 nM.

B4: N^ε35-[(4S)-4-carboxy-4-[[2-[2-[2-[[(4S)-4-carboxy-4-[[2-[2-[2-[[(4S)-4-carboxy-4-[[2-[2-[2-[[(4S)-4-carboxy-4-[[(4S)-4-carboxy-4-(17-carboxyheptadecanoylamino) … (peptide)
peptide: XXHGTFTSDYSRYLEEQAAREFIAWLLRK
modifications: Imp (desamino-His) at 7; Acb at 8; Lys35 N-epsilon acylated with 17-carboxyheptadecanoyl-γGlu-γGlu-Ado-γGlu-Ado-γGlu-Ado-γGlu-; C-terminal amide (GLP-1(7-37) numbering)
Take B4: the “EC50 GLP-1R [pM]” value with human GLP-1 receptor [1] stood at 3 pM. In addition, the “EC50 GlucagonR [pM]” value with human glucagon receptor [2] is 71 pM. Besides, the IC50 with human GLP-1 receptor [3] is 0.9 nM; with human glucagon receptor [4], 5.6 nM.
The like results for [Desaminohistidyl][Aib]HGTFTSDVSRYLEGQAAREFIAWLLK([Gly-Ser-Glu-Gly-Ser-γGlu-γGlu-C18 diacid])T-NH2 were, in that order, 17 pM, 143 pM, 0.9 nM and 8.9 nM.
In the case of [Desaminohistidyl][Aib]HGTFTSDVSRYLEEQAAREFIAWLLK([Gly-Ser-Glu-Gly-Ser-γGlu-γGlu-C18 diacid])T-NH2, in the experiment with human GLP-1 receptor [1], the “EC50 GLP-1R [pM]” value was 6 pM. Moreover, the “EC50 GlucagonR [pM]” value with human glucagon receptor [2] was 60 pM. Further, the values for the half-maximal inhibitory concentration (IC50) with human GLP-1 receptor [3] and with human glucagon receptor [4] were 0.5 nM and 3.8 nM, respectively.
The like results for [Desaminohistidyl][Ac4c]HGTFTSDVSKYLEGRAAREFIAWLLK([Gly-Ser-Glu-Gly-Ser-γGlu-γGlu-C18 diacid])T-NH2 were, in that order, 12 pM, 28 pM, 0.3 nM and 7.2 nM.
Regarding [Desaminohistidyl][Aib]HGTFTSDVSKYLEAQAAREFIAWLLK([γGlu-γGlu-Ado-γGlu-γGlu-C18 diacid])T-NH2, in the experiment with human GLP-1 receptor [1], the “EC50 GLP-1R [pM]” value stood at 3 pM. Further, the “EC50 GlucagonR [pM]” value with human glucagon receptor [2] turned out to be 21 pM. Besides, the IC50 was 0.6 nM with human GLP-1 receptor [3] and 1.7 nM with human glucagon receptor [4].
